The values below come from patent US20120114647A1 (GlaxoSmithKline, published 2012).

Sequences and labels used below:
T1: Cynomolgus monkey serum albumin (Cynomolgus monkey), A2V9Z4
T1 chain: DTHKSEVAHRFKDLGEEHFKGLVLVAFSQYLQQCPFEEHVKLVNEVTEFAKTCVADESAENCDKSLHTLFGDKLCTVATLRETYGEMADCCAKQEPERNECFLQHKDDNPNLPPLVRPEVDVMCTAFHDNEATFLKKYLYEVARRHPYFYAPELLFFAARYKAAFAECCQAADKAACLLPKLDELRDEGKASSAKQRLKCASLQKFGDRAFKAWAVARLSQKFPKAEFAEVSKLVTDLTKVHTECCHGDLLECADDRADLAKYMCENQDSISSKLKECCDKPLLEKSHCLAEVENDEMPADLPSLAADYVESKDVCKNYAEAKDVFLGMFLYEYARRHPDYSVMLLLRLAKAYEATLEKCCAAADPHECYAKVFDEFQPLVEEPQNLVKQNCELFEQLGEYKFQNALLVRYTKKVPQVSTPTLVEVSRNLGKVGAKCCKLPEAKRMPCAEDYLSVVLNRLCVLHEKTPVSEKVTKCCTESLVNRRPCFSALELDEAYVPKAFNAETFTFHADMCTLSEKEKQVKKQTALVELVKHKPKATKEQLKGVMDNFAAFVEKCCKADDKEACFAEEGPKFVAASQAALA

B1: DOM7r-31 (VHH)
VHH: EVQLLESGGGLVQPGGSLRLSCTASGFTFRHYRMGWVRQAPGKGLEWVSWIRPDGTFTYYADSVKGRFTISRDNSKNTLYLQMNSLRAEDTAVYYCAKSYMGDRFDYWGQGTLVTVSS
notes: human VH dAb (AlbudAb)
B2: DOM7h-98 (VHH)
VHH: EVQLLESGGGLVQPGGSLRLSCAASGFTFGNYAMAWVRQAPGKGLEWVSSIDMVGIKTYYADSVKGRFTISRDNSKNTLYLQMNSLRAEDTAVYYCAKGFRIFDYWGQGTLVTVSS
notes: human VH dAb (AlbudAb)
B3: DOM7r-38 (VHH)
VHH: EVQLLESGGGLVQPGGSLRLSCAASGFTFDNNAMGWVRQAPGKGLEWVSTISANGNATYYADSVKGRFTISRDNSKDTLYLQMNSLRAEDTAVYYCAKGFRRFDYWGQGTLVTVSS
notes: human VH dAb (AlbudAb)
B4: DOM7r-29 (VHH)
VHH: EVQLLESGGGLVQPGGSLRLSCAASGFTFKDYDMTWVRQAPGKGLEWVSMISSSGLWTYYADSVKGRFTISRDNSKNTLYLQMNSLRAEDTAVYYCAKGFRLFPRTFDYWGQGTLVTVSS
notes: human VH dAb (AlbudAb)
B5: DOM7r-36 (VHH)
VHH: EVQLLESGGGLVQPGGSLRLSCAASGFTFNHYTMGWVRQAPGKGLEWVSLIHPSGTVTYYADSVKGRFTISRDNSKNTLYLQMNSLRAEDTAVYYCAKWSSRAFDYWGQGTLVTVSS
notes: human VH dAb (AlbudAb)
B6: DOM7r-35 (VHH)
VHH: EVQLLESGGGLVQPGGSLRLSCAASGFTFSLYRMVWVRQAPGKGLEWVSMISQFGNQTYYADSVKGRFTISRDNSKNTLYLQMNSLRAEDTAVYYCAKVRSWDQTGGRRTFDYWGQGTLVTVSS
notes: human VH dAb (AlbudAb); propensity to dimerise by MALLS
B7: DOM7h-112 (VHH)
VHH: EVQLLESGGGLVQPGGSLRLSCAASGFTFGGYVMGWVRQAPGKGLEWVSAINRFGSSTYYADSVKGRFTISRDNSKNTLYLQMNSLRAEDTAVYYCAKGSLRHFDYWGQGTLVTVSS
notes: human VH immunoglobulin single variable domain (dAb, AlbudAb), not camelid
B8: DOM7r-31-14 (VHH)
VHH: B1 VHH with G102A
B9: DOM7h-98-4 (VHH)
VHH: B2 VHH with I70N, K98R
B10: DOM7r-92-4 (VHH)
VHH: EVQLLESGGGLVQPGGSLRLSCAASGFTFDTSSMLWVRQAPGKGLEWVSVIHQSGTPTYYADSVKGRFTISRDNSKNTLYLQMNSLRAEDTAVYYCAKFPSTHGKFDYWGQGTLVTVSS
B11: DOM7r-201 (VHH)
VHH: B5 VHH with T58I
B12: DOM7r-36-8 (VHH)
VHH: B5 VHH with T58I, K98R
B13: DOM7r-36-2 (VHH)
VHH: B5 VHH with L45R

Substitutions are numbered along the chain they refer to.

Broadly, the Kd is the free concentration of one partner at which half of the binding sites on the other are occupied at equilibrium, for simple one-to-one binding.

The first experiment addresses T2, human serum albumin (human, UniProt P02768 25-609).
T2 construct: also called HSA; human SA
In words: SPR (Biacore), cross-reactivity.
Settings: not given
For B1, the binding result is listed as “binds”.

For B2, the binding result is “binds”.

With B3, the binding result is “binds”.

B4: the binding result is “binds”.

Take B5: the binding result was “binds”.

With B6, the binding result is on record as “binds”.

A further experiment addresses T3, Cynomolgus monkey serum albumin (Cynomolgus monkey, UniProt A2V9Z4 25-608).
T3 construct: also called CSA; cyno serum albumin
Kind of experiment: SPR (Biacore), cross-reactivity.
Settings: not given
Background: In SPR one partner is held on a chip, and binding of the other changes the refractive index at the surface.
For the molecule B1, the binding result is listed as “binds”.

With B2, the binding result was “binds”.

Consider B3, for which the binding result is listed as “binds”.

Turning to B4, the binding result was “binds”.

On to B5, for which the binding result is given as “binds”.

Take B6: the binding result is “binds”.

With B7, the binding result was “binds”.

The target in another experiment is T4, rat serum albumin (rat, UniProt P02770 25-608).
T4 construct: also called RSA
In words: SPR (Biacore), cross-reactivity.
Settings: not given
As to B1, the binding result was “binds”.

For B2, the binding result was “binds”.

In the case of B3, the binding result is reported as “binds”.

Regarding B4, the binding result is given as “binds”.

With B5, the binding result is reported as “binds”.

In the case of B6, the binding result was “binds”.

Turning to B7, the binding result was “binds”.

A further experiment has as its target T5, mouse serum albumin (mouse, UniProt P07724 25-608).
T5 construct: also called MSA
In words: SPR (Biacore), cross-reactivity.
Settings: not given
For B1, the binding result is “binds”.

For the molecule B2, the binding result was “binds”.

For B3, the binding result was “binds”.

Turning to B4, the binding result is listed as “binds”.

As to B5, the binding result is reported as “binds”.

With B6, the binding result was “binds”.

For the molecule B7, the binding result is recorded as “binds”.

The target in another experiment is T2, human serum albumin. Kind of experiment: SPR (BIAcore), eight-point dilution kinetics.
Settings: not given
Take B8: the Kd is 58 nM.

As to B9, binding was characterised by a dissociation constant (Kd) of 2000 nM.

The molecule B10 returned a Kd of 130 nM.

In the case of B11, binding was characterised by a dissociation constant (Kd) of 60 nM.

B12 displayed a Kd of 67 nM.

B13 displayed a Kd of 150 nM.

For the next experiment, the target named is T3, Cynomolgus monkey serum albumin. In words: SPR (BIAcore), eight-point dilution kinetics.
Settings: not given
As to B9, the Kd is 3600 nM.

As to B10, the Kd stood at 98 nM.

Molecule B11 showed a Kd of 58 nM.

Turning to B12, the Kd was 92 nM.

The molecule B13 had a Kd of 180 nM.

For another experiment, the target named is T4, rat serum albumin. In words: SPR (BIAcore), eight-point dilution kinetics.
Settings: not given
In the case of B8, the Kd turned out to be 46 nM.

In turn, B9 yielded a Kd of 580 nM.

In turn, B10 gave a Kd of 260 nM.

For B11, the Kd is 240 nM.

For B12, binding was put at a Kd of 210 nM.

For B13, the Kd came out at 190 nM.

Another experiment deals with T5, mouse serum albumin. Kind of experiment: SPR (BIAcore), eight-point dilution kinetics.
Settings: not given
Molecule B8 gave a Kd of 6 nM.

With B9, binding was characterised by a dissociation constant (Kd) of 810 nM.

Molecule B10 had a Kd of 110 nM.

In turn, B11 displayed a Kd of 280 nM.

Molecule B12 showed a Kd of 520 nM.

B13 gave a Kd of 520 nM.

A further experiment addresses T1, Cynomolgus monkey serum albumin …. In words: SPR (BIAcore), eight-point dilution kinetics. To be noted: remark: other sources report otherwise.
With B8, the Kd stood at 31000 nM.

A further experiment addresses T2, human serum albumin. In words: SPR (Biacore), cross-reactivity against four serum albumins.
Settings: not given
In the case of B7, the binding result is on record as “no binding”.
